According to US20240200091A1, “USE OF PROTOPORPHYRINOGEN OXIDASE” (BEIJING DABEINONG BIOTECHNOLOGY CO., LTD., priority 2021, published 2024):

Experiments:
Format in all cases: in vivo
[1] = system: Arabidopsis thaliana T1 plants; experiment: sulfentrazone tolerance of transgenic Arabidopsis thaliana T1 plants (spray, grade of pesticide damage); conditions: for The grade of pesticide: grade 0 / The grade of pesticide: grade 1 / The grade of pesticide: grade 2 / The grade of pesticide: grade 3: 7 DAT, number of plants of 24 per genotype, grades
Summary of the method: (§1)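 Glufosinate-selected T1 lines expressing PPO variants, with control-vector and wild-type plants (24 per genotype), were sprayed 18 days after sowing with saflufenacil 25 or 100, sulfentrazone 450 or 900, flumioxazin 60 or 240, or oxyfluorfen 180 or 720 g ai/ha, or water. Injured/total leaf area was graded 0–3 at 7 DAT.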

[2] = system: Arabidopsis thaliana T1 plants; experiment: flumioxazin tolerance of transgenic Arabidopsis thaliana T1 plants (spray, grade of pesticide damage); conditions: for The grade of pesticide damage/plant: grade 0 / The grade of pesticide damage/plant: grade 1 / The grade of pesticide damage/plant: grade 2 / The grade of pesticide damage/plant: grade 3: 7 DAT, number of plants of 24 per genotype, grades
Summary of the method: as §1

[3] = system: transgenic soybean plants; experiment: flumioxazin tolerance of transgenic soybean plants (spray, grade of pesticide damage); conditions: for The grade of pesticide damage/plant: grade 0 / The grade of pesticide damage/plant: grade 1 / The grade of pesticide damage/plant: grade 2 / The grade of pesticide damage/plant: grade 3: 7 DAT, number of plants of 16 per genotype, grades
[4] = system: transgenic soybean plants; experiment: saflufenacil tolerance of transgenic soybean plants (spray, grade of pesticide damage); conditions: for The grade of pesticide damage/plant: grade 0 / The grade of pesticide damage/plant: grade 1 / The grade of pesticide damage/plant: grade 2 / The grade of pesticide damage/plant: grade 3: 7 DAT, number of plants of 16 per genotype, grades
[5] = system: Arabidopsis thaliana T1 plants; experiment: saflufenacil tolerance of transgenic Arabidopsis thaliana T1 plants (spray, grade of pesticide damage); conditions: for The grade of pesticide damage/plant: grade 0 / The grade of pesticide damage/plant: grade 1 / The grade of pesticide damage/plant: grade 2 / The grade of pesticide damage/plant: grade 3: 7 DAT, number of plants of 24 per genotype, grades
Summary of the method: as §1

[6] = system: transgenic soybean plants; experiment: oxyfluorfen tolerance of transgenic soybean plants (spray, grade of pesticide damage); conditions: for The grade of pesticide damage/plant: grade 0 / The grade of pesticide damage/plant: grade 1 / The grade of pesticide damage/plant: grade 2 / The grade of pesticide damage/plant: grade 3: 7 DAT, number of plants of 16 per genotype, grades
[7] = system: Arabidopsis thaliana T1 plants; experiment: oxyfluorfen tolerance of transgenic Arabidopsis thaliana T1 plants (spray, grade of pesticide damage); conditions: for The grade of pesticide damage/plant: grade 0 / The grade of pesticide damage/plant: grade 1 / The grade of pesticide damage/plant: grade 2 / The grade of pesticide damage/plant: grade 3: 7 DAT, number of plants of 24 per genotype, grades
Summary of the method: as §1

B1: PPO-APA: nucleotide sequence encoding Arsenophonus protoporphyrinogen oxidase PPO-AP (SEQ ID NO:65), Arabidopsis thaliana/soybean common codon usage bias (nucleic acid)
DNA: ATGTCTTACCTGCTGTTATATTCAGGGAAAAATGGACAAACCAAGAAGATCATTCTGAAAATAACAGAGTATCTTCGAAAAGAAGGAAAGCAATGTGATGTTAGAGATTTGAACATGGATAAGAACTTCAACCTTTCTGTATATCAGAAGGTGCTCGTTGGTGCCTCGATAAGATATGGTCATTTCAATCCCGCAGTCCTCAATTTTGCTCAGAATCACCAAAAGGAGTTAAACACTATTCAATCAGCTTTCTTTGGCGTGAATTTGATGGCTCGTAAACAAGGAAAAGATACTCCTGAGACAAATGTGTATGTGAGGAAGTTTCTTGCCAAAATTCCATGGCAACCAACAATCACCAATGTTTTCAGTGGAGCGTTGAGGTATCCTCAGTACAAATGGCTTGACCGGATAATGATTCAGTTTATCATGAAGATTACTGGTGGTGAAACAAACAAAAACAAGGAAGTTGAATATACTGATTGGGAAAAGGTAGAGTACTTTGCAAGAGAGTTTAATGCTTTGAAATGA
modifications: The nucleotide sequence of PPO-APA
16 plant: The grade of pesticide damage/plant: grade 3 ([3]; flumioxazin 120 g ai/ha (2×)) | The grade of pesticide damage/plant: grade 3 ([3]; flumioxazin 240 g ai/ha (4×)) | The grade of pesticide damage/plant: grade 3 ([4]; saflufenacil 100 g ai/ha (4×)) | The grade of pesticide damage/plant: grade 3 ([6]; oxyfluorfen 720 g ai/ha (4×))
24 plant: The grade of pesticide damage/plant: grade 3 ([2]; flumioxazin 60 g ai/ha (1×)) | The grade of pesticide damage/plant: grade 3 ([2]; flumioxazin 240 g ai/ha (4×)) | The grade of pesticide damage/plant: grade 3 ([5]; saflufenacil 25 g ai/ha (1×)) | The grade of pesticide damage/plant: grade 3 ([5]; saflufenacil 100 g ai/ha (4×)) | The grade of pesticide damage/plant: grade 3 ([7]; oxyfluorfen 180 g ai/ha (1×)) | The grade of pesticide damage/plant: grade 3 ([7]; oxyfluorfen 720 g ai/ha (4×))
basically no tolerance: tolerance to flumioxazin ([2]; flumioxazin at different concentrations (60 and 240 g ai/ha)) | tolerance to saflufenacil ([4]; soybean, saflufenacil, compared with the control vector and CK) | tolerance to oxyfluorfen ([7]; oxyfluorfen at different concentrations (180 and 720 g ai/ha), compared with the control vector and CK)
8 plant: The grade of pesticide damage/plant: grade 2 ([4]; saflufenacil 50 g ai/ha (2×)) | The grade of pesticide damage/plant: grade 3 ([4]; saflufenacil 50 g ai/ha (2×)) | The grade of pesticide damage/plant: grade 2 ([6]; oxyfluorfen 360 g ai/ha (2×)) | The grade of pesticide damage/plant: grade 3 ([6]; oxyfluorfen 360 g ai/ha (2×))
24: The grade of pesticide: grade 3 ([1]; sulfentrazone 450 g ai/ha (1×)) | The grade of pesticide: grade 3 ([1]; sulfentrazone 900 g ai/ha (2×))
0: The grade of pesticide: grade 0 ([1]; sulfentrazone 450 g ai/ha (1×)) | The grade of pesticide: grade 1 ([1]; sulfentrazone 450 g ai/ha (1×)) | The grade of pesticide: grade 2 ([1]; sulfentrazone 450 g ai/ha (1×)) | The grade of pesticide: grade 0 ([1]; sulfentrazone 900 g ai/ha (2×)) | The grade of pesticide: grade 1 ([1]; sulfentrazone 900 g ai/ha (2×)) | The grade of pesticide: grade 2 ([1]; sulfentrazone 900 g ai/ha (2×))
no flumioxazin tolerance: tolerance to flumioxazin ([3]; soybean, flumioxazin at different concentrations (120 and 240 g ai/ha))
0 plant: The grade of pesticide damage/plant: grade 0 ([2]; flumioxazin 60 g ai/ha (1×)) | The grade of pesticide damage/plant: grade 1 ([2]; flumioxazin 60 g ai/ha (1×)) | The grade of pesticide damage/plant: grade 2 ([2]; flumioxazin 60 g ai/ha (1×)) | The grade of pesticide damage/plant: grade 0 ([2]; flumioxazin 240 g ai/ha (4×)) | The grade of pesticide damage/plant: grade 1 ([2]; flumioxazin 240 g ai/ha (4×)) | The grade of pesticide damage/plant: grade 2 ([2]; flumioxazin 240 g ai/ha (4×)) | The grade of pesticide damage/plant: grade 0 ([3]; flumioxazin 120 g ai/ha (2×)) | The grade of pesticide damage/plant: grade 1 ([3]; flumioxazin 120 g ai/ha (2×)) | The grade of pesticide damage/plant: grade 2 ([3]; flumioxazin 120 g ai/ha (2×)) | The grade of pesticide damage/plant: grade 0 ([3]; flumioxazin 240 g ai/ha (4×)) | The grade of pesticide damage/plant: grade 1 ([3]; flumioxazin 240 g ai/ha (4×)) | The grade of pesticide damage/plant: grade 2 ([3]; flumioxazin 240 g ai/ha (4×)) | The grade of pesticide damage/plant: grade 0 ([4]; saflufenacil 50 g ai/ha (2×)) | The grade of pesticide damage/plant: grade 1 ([4]; saflufenacil 50 g ai/ha (2×)) | The grade of pesticide damage/plant: grade 0 ([4]; saflufenacil 100 g ai/ha (4×)) | The grade of pesticide damage/plant: grade 1 ([4]; saflufenacil 100 g ai/ha (4×)) | The grade of pesticide damage/plant: grade 2 ([4]; saflufenacil 100 g ai/ha (4×)) | The grade of pesticide damage/plant: grade 0 ([5]; saflufenacil 25 g ai/ha (1×)) | The grade of pesticide damage/plant: grade 1 ([5]; saflufenacil 25 g ai/ha (1×)) | The grade of pesticide damage/plant: grade 2 ([5]; saflufenacil 25 g ai/ha (1×)) | The grade of pesticide damage/plant: grade 0 ([5]; saflufenacil 100 g ai/ha (4×)) | The grade of pesticide damage/plant: grade 1 ([5]; saflufenacil 100 g ai/ha (4×)) | The grade of pesticide damage/plant: grade 2 ([5]; saflufenacil 100 g ai/ha (4×)) | The grade of pesticide damage/plant: grade 0 ([6]; oxyfluorfen 360 g ai/ha (2×)) | The grade of pesticide damage/plant: grade 1 ([6]; oxyfluorfen 360 g ai/ha (2×)) | The grade of pesticide damage/plant: grade 0 ([6]; oxyfluorfen 720 g ai/ha (4×)) | The grade of pesticide damage/plant: grade 1 ([6]; oxyfluorfen 720 g ai/ha (4×)) | The grade of pesticide damage/plant: grade 2 ([6]; oxyfluorfen 720 g ai/ha (4×)) | The grade of pesticide damage/plant: grade 0 ([7]; oxyfluorfen 180 g ai/ha (1×)) | The grade of pesticide damage/plant: grade 1 ([7]; oxyfluorfen 180 g ai/ha (1×)) | The grade of pesticide damage/plant: grade 2 ([7]; oxyfluorfen 180 g ai/ha (1×)) | The grade of pesticide damage/plant: grade 0 ([7]; oxyfluorfen 720 g ai/ha (4×)) | The grade of pesticide damage/plant: grade 1 ([7]; oxyfluorfen 720 g ai/ha (4×)) | The grade of pesticide damage/plant: grade 2 ([7]; oxyfluorfen 720 g ai/ha (4×))
no tolerance: tolerance to sulfentrazone ([1]; sulfentrazone at different concentrations (450 and 900 g ai/ha)) | tolerance to saflufenacil ([5]; saflufenacil at four-fold field concentration (100 g ai/ha)) | tolerance to saflufenacil ([5]; saflufenacil at one-fold field concentration (25 g ai/ha)) | tolerance to oxyfluorfen ([6]; soybean, oxyfluorfen at four-fold field concentration (720 g ai/ha))
